For data set [1], the system named is CC(=O)N[C@H]1[C@@H](OP(=O)(O)OP(=O)(O)OC[C@H]2O[C@@H](n3ccc(=O)[nH]c3=O)[C@H](O)[C@@H]2O)O[C@H](C(=O)O)[C@@H](O)[C@@H]1N. As to the kind of experiment: purified protein. Particulars: 1.5 mM AcCoA, 50 mM HEPES pH 7.0, 30 °C, BSA carrier.
The target of the next data set is WbpE (Pseudomonas aeruginosa, UniProt Q9HZ76). As to the kind of experiment: capillary electrophoresis, coupled WbpB/WbpE reaction. The following applies: 25 mM L-glutamine in place of L-glutamate; otherwise same. The class given is biochemical.
A further data set concerns the target WbpB (Pseudomonas aeruginosa, UniProt G3XD23). As to the kind of experiment: capillary electrophoresis of conversion to UDP-GlcNAc. In kind it is biochemical. Particulars: 10 mM α-KG, 50 mM HEPES pH 8.0, 30 °C, no WbpE.

We go through three compounds from publication PMC2694220 (Biochemistry, 2009).

Sequence of WbpE (Q9HZ76 whole entry): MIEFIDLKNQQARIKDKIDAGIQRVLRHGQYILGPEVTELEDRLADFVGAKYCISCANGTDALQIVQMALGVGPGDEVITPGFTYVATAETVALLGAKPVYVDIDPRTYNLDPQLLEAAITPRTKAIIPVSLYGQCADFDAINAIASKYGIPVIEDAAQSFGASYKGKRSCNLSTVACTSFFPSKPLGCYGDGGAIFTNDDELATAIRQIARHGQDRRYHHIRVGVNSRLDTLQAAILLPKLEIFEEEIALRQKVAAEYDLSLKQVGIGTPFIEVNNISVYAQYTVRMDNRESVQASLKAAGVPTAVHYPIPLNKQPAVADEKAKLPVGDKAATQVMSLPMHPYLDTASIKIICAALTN
Sequence of WbpB (G3XD23 whole entry): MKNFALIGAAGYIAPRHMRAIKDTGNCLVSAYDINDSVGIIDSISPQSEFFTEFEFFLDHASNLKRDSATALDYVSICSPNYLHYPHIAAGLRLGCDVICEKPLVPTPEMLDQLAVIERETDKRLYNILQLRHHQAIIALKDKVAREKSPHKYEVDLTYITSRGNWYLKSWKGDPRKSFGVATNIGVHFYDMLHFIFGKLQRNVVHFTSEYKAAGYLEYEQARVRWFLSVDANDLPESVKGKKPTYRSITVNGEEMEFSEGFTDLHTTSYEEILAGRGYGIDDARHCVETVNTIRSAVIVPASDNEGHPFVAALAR

On to WbpD (Pseudomonas aeruginosa PAO1), for which, in data set [1], the Km is 107 ± 15 µM and the kcat result was “(2.9 ± 0.12) × 10^3 min^−1”.
As to `NC(=O)CC[C@H](N)C(=O)O` [L-glutamine], the “% conversion at 25 mM” value at WbpE was 10%.
With `CC(=O)N[C@H]1[C@@H](OP(=O)(O)OP(=O)(O)OC[C@H]2O[C@@H](n3ccc(=O)[nH]c3=O)[C@H](O)[C@@H]2O)O[C@H](C(=O)O)[C@@H](O)[C@@H]1O` [UDP-GlcNAcA], the “capillary electrophoresis of conversion to UDP-GlcNAc(3keto)A” value at WbpB is reported as “complete conversion of the UDP-GlcNAcA starting material to the UDP-GlcNAc(3keto)A product was observed by CE”.

As usually defined, the Km is the substrate concentration at which the rate is half of its maximum.
